Experimental data from patent US20210324028A1 (Pfizer, published 2021).
Where a chain is given by its changes, count along the chain named. In names and notes the source's numbering stands.

T1: human IL-2Rβ (human, UniProt P14784 27-240, limits assumed)
T1 construct: also called hIL-2Rβ; IL-2 receptor beta
T1 sequence (looked up): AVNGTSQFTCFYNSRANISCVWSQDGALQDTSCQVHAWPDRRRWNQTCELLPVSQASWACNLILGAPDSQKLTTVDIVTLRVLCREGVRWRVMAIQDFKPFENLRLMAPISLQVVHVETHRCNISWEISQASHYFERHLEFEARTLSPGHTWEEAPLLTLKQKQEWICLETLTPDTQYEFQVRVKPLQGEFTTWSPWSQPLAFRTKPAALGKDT

B1: hIL-15 V49R/D8A (ligand)
chain: NWVNVISALKKIEDLIQSMHIDATLYTESDVHPSCKVTAMKCFLLELQRISLESGDASIHDTVENLIILANNSLSSNGNVTESGCKECEELEEKNIKEFLQSFVHIVQMFINTGGGGSGHHHHHHHHGGGLNDIFEAQKIEWHE
B2: hIL-15 V49R/I68D (ligand)
chain: B1 chain with A8D, I68D
B3: hIL-15 V49R/N65S (ligand)
chain: B1 chain with A8D, N65S
B4: hIL-15 V49R/N65A (ligand)
chain: B1 chain with A8D, N65A
B5: hIL-15 V49R/N4K (ligand)
chain: B1 chain with N4K, A8D
B6: hIL-15 V49R/N4I (ligand)
chain: B1 chain with N4I, A8D
B7: hIL-15 V49R/K10P (ligand)
chain: B1 chain with A8D, K10P
B8: hIL-15 V49R/D61N (ligand)
chain: B1 chain with A8D, D61N
B9: hIL-15 V49R/N4S (ligand)
chain: B1 chain with N4S, A8D
B10: hIL-15 V49R/D61S (ligand)
chain: B1 chain with A8D, D61S
B11: hIL-15 V49R/D8K (ligand)
chain: B1 chain with A8K
B12: hIL-15 V49R/I68S (ligand)
chain: B1 chain with A8D, I68S
B13: hIL-15 V49R/D8N (ligand)
chain: B1 chain with A8N
B14: hIL-15 V49R/K11P (ligand)
chain: B1 chain with A8D, K11P
B15: hIL-15 V49R/D8S (ligand)
chain: B1 chain with A8S
B16: hIL-15 V49R/D61K (ligand)
chain: B1 chain with A8D, D61K
B17: hIL-15 V49R/I68K (ligand)
chain: B1 chain with A8D, I68K
B18: hIL-15 V49R/E64K (ligand)
chain: B1 chain with A8D, E64K
B19: hIL-15 V49R/V31S (ligand)
chain: B1 chain with A8D, V31S
B20: hIL-15 V49R/V31D (ligand)
chain: B1 chain with A8D, V31D
B21: hIL-15 V49R/V31A (ligand)
chain: B1 chain with A8D, V31A
B22: hIL-15 V49R/S7Q (ligand)
chain: B1 chain with S7Q, A8D
B23: hIL-15 V49R/S29D (ligand)
chain: B1 chain with A8D, S29D
B24: hIL-15 V49R/S29K (ligand)
chain: B1 chain with A8D, S29K
B25: hIL-15 V49R/S29N (ligand)
chain: B1 chain with A8D, S29N
B26: hIL-15 V49R/S7T (ligand)
chain: B1 chain with S7T, A8D
B27: hIL-15 V49R/S29A (ligand)
chain: B1 chain with A8D, S29A
B28: hIL-15 V49R/S7R (ligand)
chain: B1 chain with S7R, A8D

Biological target: T1, human IL-2Rβ
Assay: SPR 37C

| binding result | Binder |
| --- | --- |
| no binding | B1 |
| no binding | B2 |
| no binding | B3 |
| no binding | B4 |
| no binding | B5 |
| no binding | B6 |
| no binding | B7 |
| no binding | B8 |
| no binding | B9 |
| no binding | B10 |
| no binding | B11 |
| no binding | B12 |
| no binding | B13 |
| no binding | B14 |
| no binding | B15 |
| no binding | B16 |
| no binding | B17 |
| no binding | B18 |

Biological target: T1, human IL-2Rβ
Assay: SPR, steady state

| Kd | Binder |
| --- | --- |
| > 500 nM | B19 |
| > 500 nM | B20 |
| 269 nM | B21 |
| 215 nM | B22 |
| 238 nM | B23 |
| 248 nM | B24 |
| 322 nM | B25 |
| > 500 nM | B26 |
| 274 nM | B27 |
| > 500 nM | B28 |

Biological target: T2, human IL-15Rα (human, UniProt Q13261 31-205, limits assumed)
T2 construct: also called hIL-15Rα; IL-15 receptor alpha
T2 sequence (Q13261 31-205 limits assumed): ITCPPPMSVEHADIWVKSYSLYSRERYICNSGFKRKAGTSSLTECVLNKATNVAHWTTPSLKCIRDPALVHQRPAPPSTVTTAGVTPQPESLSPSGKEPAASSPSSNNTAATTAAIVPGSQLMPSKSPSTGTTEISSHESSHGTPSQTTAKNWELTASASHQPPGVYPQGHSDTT
Assay: SPR, steady state

| Kd | Binder |
| --- | --- |
| 102 nM | B1 |
| 106 nM | B2 |
| 265 nM | B19 |
| 158 nM | B3 |
| 202 nM | B4 |
| 73.1 nM | B5 |
| > 500 nM | B20 |
| 121 nM | B8 |
| 129 nM | B21 |
| 88.1 nM | B22 |
| 121 nM | B23 |
| 261 nM | B24 |
| 94.7 nM | B9 |
| 102 nM | B10 |
| 154 nM | B25 |
| 101 nM | B11 |
| 104 nM | B12 |
| 119 nM | B13 |
| 93.9 nM | B26 |
| 124 nM | B15 |
| 154 nM | B27 |
| 116 nM | B16 |
| 94.2 nM | B17 |
| 77 nM | B28 |
| 164 nM | B18 |
